Consider 1 molecule from PMC2683190 (Neurobiology of disease, 2009).

The target of experiment [1] is T1, soluble LIFR (leukemia inhibitory factor receptor) (UniProt P42702 45-833).
T1 sequence (looked up): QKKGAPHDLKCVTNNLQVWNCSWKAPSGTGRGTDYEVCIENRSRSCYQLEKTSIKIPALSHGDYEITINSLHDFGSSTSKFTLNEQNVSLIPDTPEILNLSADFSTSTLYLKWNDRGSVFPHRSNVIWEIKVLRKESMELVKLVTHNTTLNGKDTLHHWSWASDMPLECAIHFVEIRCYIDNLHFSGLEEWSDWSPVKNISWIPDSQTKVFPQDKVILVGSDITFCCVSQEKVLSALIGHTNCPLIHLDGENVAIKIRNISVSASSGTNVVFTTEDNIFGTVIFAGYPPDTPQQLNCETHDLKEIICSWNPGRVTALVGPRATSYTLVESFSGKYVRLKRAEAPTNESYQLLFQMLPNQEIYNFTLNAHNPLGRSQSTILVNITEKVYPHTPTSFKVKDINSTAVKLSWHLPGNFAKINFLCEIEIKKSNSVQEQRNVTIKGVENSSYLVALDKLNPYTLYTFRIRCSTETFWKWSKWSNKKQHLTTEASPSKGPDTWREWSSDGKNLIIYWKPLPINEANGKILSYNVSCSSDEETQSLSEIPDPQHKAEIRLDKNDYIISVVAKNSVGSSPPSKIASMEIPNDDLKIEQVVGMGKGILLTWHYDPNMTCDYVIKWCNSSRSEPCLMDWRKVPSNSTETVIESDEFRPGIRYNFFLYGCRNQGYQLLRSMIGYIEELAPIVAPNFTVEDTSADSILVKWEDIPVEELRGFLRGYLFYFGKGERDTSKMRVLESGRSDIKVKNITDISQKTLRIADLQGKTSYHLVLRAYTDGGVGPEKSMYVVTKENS
As to the kind of experiment: SPR. For orientation: SPR reads the build-up and loss of mass on a sensor chip optically.

Experiment [2] concerns the target T2, soluble gp130 (glycoprotein 130) (UniProt P40189 23-619).
T2 sequence (looked up): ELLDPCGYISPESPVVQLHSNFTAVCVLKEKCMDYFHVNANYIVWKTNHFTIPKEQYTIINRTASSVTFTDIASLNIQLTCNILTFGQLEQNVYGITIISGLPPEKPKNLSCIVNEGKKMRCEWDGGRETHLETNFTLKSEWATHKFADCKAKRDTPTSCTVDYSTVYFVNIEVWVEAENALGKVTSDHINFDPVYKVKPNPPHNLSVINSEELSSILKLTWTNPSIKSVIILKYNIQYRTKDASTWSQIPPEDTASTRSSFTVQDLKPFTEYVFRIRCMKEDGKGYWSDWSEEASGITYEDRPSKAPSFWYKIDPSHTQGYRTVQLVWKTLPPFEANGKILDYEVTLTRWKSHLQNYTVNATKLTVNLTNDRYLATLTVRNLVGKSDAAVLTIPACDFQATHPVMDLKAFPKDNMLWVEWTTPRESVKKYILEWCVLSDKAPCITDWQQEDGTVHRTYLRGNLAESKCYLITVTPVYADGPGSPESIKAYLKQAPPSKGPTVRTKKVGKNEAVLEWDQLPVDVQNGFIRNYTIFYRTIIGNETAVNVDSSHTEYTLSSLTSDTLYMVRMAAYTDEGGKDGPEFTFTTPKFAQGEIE
Kind of experiment: SPR.

B1: GST-LIF (human leukemia inhibitory factor as glutathione-S-transferase fusion protein) (ligand)
chain: not shown
In the case of B1, in experiment [1], the Kd (as a rule, a measure of binding affinity in units of concentration) came to 2.93 nM; the koff – broadly, the first-order rate constant of dissociation – is 0.00107 s⁻¹; the kon (usually the rate constant with which the complex forms) stood at 366000 M⁻¹ s⁻¹. Further, in experiment [2], the Kd came to 9.02 nM, the koff stood at 0.0017 s⁻¹ and the kon turned out to be 188000 M⁻¹ s⁻¹.
